± gives the uncertainty stated by the source.
Experiment: protein stability index of a GFP-peptide fusion (yeast GPS) (PSI 1-4); higher = more stable; sorted into four equal gates, so the index is relative within each strain
Method in brief: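 Yeast carrying a pooled library were grown to mid-log phase in leucine-free medium. Each library plasmid expresses Cherry and has a tiled 17-residue yeast protein peptide fused downstream of GFP. Cells were sorted into four equal gates by GFP/Cherry ratio, and plasmids from each gate were PCR-amplified, Illumina-sequenced and assigned to strains by barcode. Summing, across gates, the read frequency times the gate number gave each peptide's protein stability index.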

Row | Sequence | protein stability index (doa10∆) | protein stability index (pdr5∆) | protein stability index (san1∆) | protein stability index (ubr1∆)
1 | KRKEELVSTLTTGISST [SMC2] | 2.3 ± 0.061 | 2.07 ± 0.052 | 2.61 ± 0.086 | 2.11 ± 0.045
2 | YILSLVSIKDSTGCVVG [YMR129W/POM152] | 1.41 ± 0.041 | 1.47 ± 0.047 | 1.92 ± 0.062 | 1.48 ± 0.034
3 | NNHNMRNNSNNKTSNNN [SWI1] | 2.56 ± 0.088 | 2.55 ± 0.068 | 1.85 ± 0.093 | 2.6 ± 0.049
4 | TVPNLPTTMVTNQKDTN [ISW2] | 1.29 ± 0.046 | 1.84 ± 0.053 | 1.51 ± 0.1 | 1.75 ± 0.051
5 | QSSGKLKEYLDLVARTA [YDL116W/NUP84] | 2.63 ± 0.23 | 2.88 ± 0.16 | 3.01 ± 0.099 | 2.74 ± 0.15
6 | AELDLMSGILHCEDKDY [RPN6] | 2.9 ± 0.052 | 3.08 ± 0.047 | 3 ± 0.046 | 3.13 ± 0.038
7 | TCVAKKGIAKEHAKWGP [RPB3] | 3.31 ± 0.07 | 3.28 ± 0.08 | 3.21 ± 0.07 | 3.16 ± 0.047
8 | FMKKLRAAKLAAPENEK [RPS15] | 2.85 ± 0.14 | 3.25 ± 0.17 | 2.48 ± 0.11 | 3.48 ± 0.22
9 | TEAGFFAIRDDRDHINP [RPT4] | 2.49 ± 0.08 | 2.99 ± 0.072 | 3.12 ± 0.058 | 3.27 ± 0.045
10 | TAFKATVFFLIRVAETR [YJL039C/NUP192] | 1.53 ± 0.087 | 1.22 ± 0.063 | 1.12 ± 0.12 | 1.47 ± 0.048
11 | PKVSAGDSGISPEESKA [SIR4] | 3.44 ± 0.1 | 3.46 ± 0.13 | 2.98 ± 0.098 | 3.17 ± 0.059
12 | VQELLKVLNEISKTTLT [RPN3] | 3.1 ± 0.15 | 3.29 ± 0.074 | 3.17 ± 0.055 | 3.39 ± 0.071
13 | MVDESDKKQQTIDEQSQ [RPN1] | 3.17 ± 0.16 | 3.25 ± 0.16 | 3.38 ± 0.11 | 3.43 ± 0.12
14 | ASLALAHVFVGTCNGDI [RPN1] | 2.48 ± 0.059 | 2.61 ± 0.054 | 2.43 ± 0.077 | 2.58 ± 0.074
15 | QAIPKFQMNCYAKEDAF [RPN2] | 1.84 ± 0.061 | 2.23 ± 0.044 | 2.17 ± 0.067 | 2.57 ± 0.036
16 | TRQSSRNFDTHENYIQD [MCD1] | 2.92 ± 0.098 | 3.03 ± 0.082 | 2.84 ± 0.08 | 2.69 ± 0.056
17 | TNSHLPAGKQVEISLVN [FAS1] | 3.48 ± 0.14 | 3.37 ± 0.13 | 3.36 ± 0.069 | 3.12 ± 0.084
18 | HLIFSNARIYNTEGSVV [SNF2] | 3 ± 0.12 | 3.39 ± 0.18 | 2.49 ± 0.19 | 3.18 ± 0.085
19 | SYVETLDSMIELFKDYK [MED1] | 3.24 ± 0.085 | 3.22 ± 0.1 | 3.34 ± 0.052 | 3.19 ± 0.054
20 | REKNSLESGKETALEFL [SMC4] | 3.47 ± 0.17 | 3.17 ± 0.11 | 3.07 ± 0.086 | 3.63 ± 0.093
21 | IVEINNVSNTFNKTTNI [YJL041W/NSP1] | 2.87 ± 0.048 | 2.9 ± 0.05 | 2.71 ± 0.046 | 2.86 ± 0.038
22 | EGSKSHPFGHALVAGIE [RPL27A] | 2.73 ± 0.061 | 2.83 ± 0.069 | 2.59 ± 0.071 | 2.76 ± 0.047
23 | TTTSNTSGTNIAGTFNV [YOR098C/NUP1] | 3 ± 0.05 | 2.54 ± 0.037 | 2.5 ± 0.051 | 2.24 ± 0.028
24 | VSALQMLKQHLFKYQGH [PUP1] | 2.55 ± 0.073 | 2.71 ± 0.076 | 2.65 ± 0.059 | 2.57 ± 0.05
25 | LDAIDDFIQLKQTAAYR [SSN2] |  |  |  | 3.23 ± 0.22
26 | KVLNEISKTTLTLDPRY [RPN3] | 2.88 ± 0.085 | 2.99 ± 0.055 | 2.89 ± 0.05 | 3.2 ± 0.069
27 | IPYAAKLLFQELMAMNI [RPB2] | 1.64 ± 0.13 | 1.66 ± 0.098 | 1.64 ± 0.29 | 1.55 ± 0.055

Row | Sequence | protein stability index (doa10∆) | protein stability index (pdr5∆) | protein stability index (san1∆) | protein stability index (ubr1∆)
28 | VVAKKDFNQAKHEEIDT [RPS10A] | 3.51 ± 0.2 | 2.54 ± 0.19 | 3.22 ± 0.099 | 3.09 ± 0.081
29 | QIAKFVVGLGERVSPTD [RPT1] | 2.62 ± 0.099 | 1.33 ± 0.04 | 2.05 ± 0.13 | 1.38 ± 0.051
30 | SYVAVLGMGKAVEKTLA [POP7] | 1.75 ± 0.13 | 2.17 ± 0.081 | 1.82 ± 0.11 | 1.61 ± 0.086
31 | IDELIDTKLRLEKSKNE [YIL149C/MLP2] | 2.62 ± 0.047 | 2.81 ± 0.045 | 2.8 ± 0.04 | 2.8 ± 0.032
32 | LLKEEKIIELMNKIFTI [YML103C/NUP188] | 2.81 ± 0.088 | 1.57 ± 0.097 | 1.26 ± 0.15 | 1.79 ± 0.25
33 | MKYLAAYLLLVQGGNAA [RPP2B] | 1.53 ± 0.051 | 1.78 ± 0.038 | 1.78 ± 0.069 | 2 ± 0.065
34 | VHVIHFQHADNSSMRYG [AAR2] | 2.73 ± 0.081 | 2.7 ± 0.073 | 2.32 ± 0.11 | 2.53 ± 0.055
35 | FNSVVNLSRYPKSGIDI [MTR3] | 2.66 ± 0.055 | 2.96 ± 0.086 | 2.82 ± 0.079 | 3.03 ± 0.075
36 | LELMDSKKTGQFNAQGV [POP1] | 3.54 ± 0.12 | 3.6 ± 0.077 |  | 3.48 ± 0.092
37 | YLERTLDTFIKIDGNPD [PRE5] | 2.73 ± 0.098 | 3.2 ± 0.092 | 3.04 ± 0.055 | 3.3 ± 0.078
38 | GAHKFLDTYLPEDLNSL [SIR2] | 1.85 ± 0.071 | 1.88 ± 0.076 | 1.56 ± 0.13 | 1.81 ± 0.064
39 | YAVAEQCPVKSAEDQLY [QCR2] | 3.22 ± 0.13 |  | 3.15 ± 0.14 | 3.34 ± 0.21
40 | LRRIITDLNQDSAAIIA [GRR1] | 2.64 ± 0.075 | 2.31 ± 0.068 | 2.6 ± 0.064 | 2.55 ± 0.053
41 | RRLDALVEKVYARFKND [ITC1] | 3.29 ± 0.16 | 1.93 ± 0.083 | 2.69 ± 0.078 | 2.29 ± 0.097
42 | KDENNTANDQYSSILGN [YCG1] | 3.02 ± 0.047 | 3.2 ± 0.046 | 3.01 ± 0.032 | 3.08 ± 0.034
43 | NERELNVFARLSRLLSL [RPC82] | 2.02 ± 0.16 | 2.07 ± 0.11 | 2.79 ± 0.13 | 2.5 ± 0.06
44 | VEMAWIMGFISYHNGNL [FAS2] | 2.67 ± 0.14 | 3.2 ± 0.1 | 3.29 ± 0.063 | 3.06 ± 0.12
45 | MNKDQAEKYQERSLRQK [SNM1] | 3.3 ± 0.089 | 3.25 ± 0.089 | 3.35 ± 0.069 | 3.53 ± 0.093
46 | SPFLMGHPMTKSVYETP [SEC65] | 2.28 ± 0.067 | 2.55 ± 0.068 | 2.83 ± 0.083 | 2.68 ± 0.052
47 | QKYWESMRIQILRRQAI [GAL11] | 1.34 ± 0.091 | 2.25 ± 0.087 | 1.65 ± 0.16 | 2.1 ± 0.058
48 | DLEGRANIFRIHSKSMS [RPT1] |  |  | 3.21 ± 0.25 | 
49 | DDKDCTIKISTNDDSIK [RGR1] | 2.89 ± 0.068 | 3.15 ± 0.067 | 2.98 ± 0.052 | 2.96 ± 0.057
50 | NNTEKNDVTNKNINIGK [SIR4] | 2.1 ± 0.055 | 2.21 ± 0.052 | 2.9 ± 0.043 | 2.37 ± 0.044
51 | YWYFLQKLHKVKKASGE [RPL20A] | 3.1 ± 0.093 | 2.86 ± 0.068 | 3.13 ± 0.049 | 2.97 ± 0.063
52 | VQGSTLAQLTSKLIPEV [RPS1A] | 2.79 ± 0.061 | 2.96 ± 0.063 | 3.01 ± 0.051 | 2.76 ± 0.045
53 | YSNSHQMAVHIATDGGR [RET1] | 1.98 ± 0.071 | 2.95 ± 0.086 | 2.35 ± 0.13 | 2.73 ± 0.057
54 | ILGQTMSIGTGSFKVVK [RPO31] |  | 2.47 ± 0.13 | 1.97 ± 0.12 | 2.99 ± 0.15

Reference: the supplement of paper PMC9732359
